Data published in patent US9376706B2, “Protease detection” (Mologic Limited, priority 2007, dated 2016).
Square brackets hold non-standard residues; d marks the D form. Ends that are not written are not given here. ANA = 2-amino naphthoic acid; 4Abz = Nc1ccc(C(=O)O)cc1

Columns and labels:
Format in all cases: biochemical
Neutrophil Elastase [1] = molecular target: T1, Neutrophil Elastase (Homo sapiens, UniProt P08246); test: Plate assay of peptides as elastase substrates with DMAC visualisation; conditions: for result for elastase activity (well colour): 37° C., 30 minutes, pH 7.4; for suitability as elastase substrate: conclusion of Examples 3A and 3B
T1 sequence (P08246 30-267): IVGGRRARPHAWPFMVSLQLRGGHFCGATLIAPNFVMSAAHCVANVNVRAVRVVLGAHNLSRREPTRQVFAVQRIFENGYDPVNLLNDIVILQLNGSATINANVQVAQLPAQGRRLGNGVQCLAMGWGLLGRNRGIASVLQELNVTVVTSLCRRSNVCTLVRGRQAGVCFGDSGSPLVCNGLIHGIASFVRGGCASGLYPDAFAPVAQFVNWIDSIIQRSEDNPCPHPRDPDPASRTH
Protocol: Two peptides, AAPV-[pABA]-GGC (SEQ ID NO: 3) and AAPV-[ANA]-GGC (SEQ ID NO: 4), were synthesised, wherein pABA is para-amino benzoic acid and ANA is 2-amino naphthoic acid. Both peptides were tested for their suitability as a substrate for the Neutrophil Elastase enzyme. The electrospray mass spectrums of AAPV-[pABA]-GGC (SEQ ID NO: 3) and AAPV-[ANA]-GGC (SEQ ID NO: 4) are shown in FIGS. 10A and 10B respectively.
Varying concentrations of Elastase (5 μl of 18, 9, 6 and 3 units/ml dilutions) were added to 0.5 mg/ml peptide (5 μl) in separate plate wells. The mixtures were diluted with 20 μl of Buffer (50 mM phosphate, 5 mM EDTA; pH 7.4) and incubated at 37° C. for 30 minutes. 15 μl of working DMAC solution (0.3 mg/ml DMAC, 50 mM HCl) was added to each plate well and mixed thoroughly to visualize.

Neutrophil Elastase [2] = molecular target: T1, Neutrophil Elastase; test: Vertical flow column assay, peptide conjugated to frits, elastase, DMAC development; conditions: column with elastase, flow contact time approx. 30 seconds
Protocol: Another assay format was used to test for the activity of the enzyme Neutrophil Elastase in the presence of the two peptides, AAPV-[pABA]-GGC (SEQ ID NO: 3) and AAPV-[ANA]-GGC (SEQ ID NO: 4). The C-terminal cysteine group of the peptides was used as a means of conjugation to a solid surface. Sintered polyethylene frits functionalised with iodoacetyl groups were rinsed in 50 mM sodium phosphate, 5 mM EDTA, pH 7.4 for 10 minutes. The frits were then transferred to a solution of 0.5 mg/ml peptide (in PBS) for sensitisation for 30 minutes. The frits were then rinsed once more in phosphate EDTA buffer for 10 minutes. The frits were loaded into empty columns and 200 μl of elastase was added with an approximate flow contact time of 30 seconds. To develop the assay, 100 μl of working DMAC solution (0.3 mg/ml DMAC, 50 mM HCl) was passed through the column.

papain = molecular target: T2, papain (Carica papaya, UniProt P00784); test: Booklet assay for detection of papain with DMAC visualisation
T2 sequence (P00784 134-345): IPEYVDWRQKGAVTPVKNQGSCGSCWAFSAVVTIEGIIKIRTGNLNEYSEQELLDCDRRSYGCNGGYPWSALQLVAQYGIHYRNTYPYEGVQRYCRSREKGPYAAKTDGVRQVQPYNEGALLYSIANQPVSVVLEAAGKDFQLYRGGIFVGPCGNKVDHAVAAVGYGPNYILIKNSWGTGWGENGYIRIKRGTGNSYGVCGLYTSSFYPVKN
Text: The polypeptides of the present invention are, in some embodiments, incorporated into a product for detecting a protease enzyme in a sample which takes the form of a booklet. A suitable such booklet is disclosed in PCT application No. PCT/GB2007/000643 which is incorporated herein by reference. Referring to FIG. 3 a booklet 1 in accordance with this embodiment will now be described. The booklet comprises first and second sheets 2, 3 of planar substrate such as cardboard, connected by a hinge 4. In the centre of the first sheet there is provided a thin reaction film 25 on top of an absorbent pad 5. The reaction film 25 is impregnated with the chromogenic polypeptide and can be made from PVA. On the centre of the second sheet 3 there is provided an aperture 6 which is aligned with the reaction film 25 and the absorbent pad 5. The aperture 6 is covered by a visualisation film 7, such that the visualisation film 7 lies between the aperture 6 and the reaction film 25 when the first and second sheets 2, 3 are pressed against each other. The visualisation film 7 is impregnated with DMAC and HCl. Optionally, the reaction film 25 and the absorbent pad 5 are covered with a removable film (not shown) prior to use so that the reaction film 25 and the absorbent pad 5 are kept sealed from the environment. […]

Substance | result for elastase activity (well colour) (Neutrophil Elastase [1]; all wells with elastase) | suitability as elastase substrate (Neutrophil Elastase [1]) | result of vertical flow assay (column colour) (Neutrophil Elastase [2]) | result for elastase activity (well colour) (Neutrophil Elastase [1]; final elastase 0.5 units/ml) | result for elastase activity (well colour) (Neutrophil Elastase [1]; final elastase 3, 1.5 or 1 units/ml) | colour change of DMAC in booklet assay (papain; papain sample, 5 min on first sheet, read ten minutes after folding onto DMAC sheet) | rate of colour change compared with BANA (papain; papain, identical conditions, FIG. 7C)
AAPV-[ANA]-GGC (AAPV[ANA]GGC) [chromogenic peptide, ANA is 2-amino naphthoic acid] | elastase activity was not detected | poor elastase substrate | negative results | – | – | – | –
AAPV-[pABA]-GGC (AAPV[4Abz]GGC) [chromogenic peptide, pABA is para-amino benzoic acid] | – | significantly more suitable as a substrate for elastase | positive result | weak positive result | positive result | – | –
Val-Arg-[pABA]-Gly (VR[4Abz]G-OH; N-terminus assumed; SMILES CC(C)[C@H](N)C(=O)N[C@@H](CCCNC(=N)N)C(=O)Nc1ccc(C(=O)NCC(=O)O)cc1) [chromogenic polypeptide; pABA is para-amino benzoic acid] | – | – | – | – | – | changed from yellow to red | faster detectable colour change than BANA
